The values below come from patent US20080220446A1, “Method for Detecting and/or Removing Protein and/or Peptide Comprising a Cross-Beta Structure From an Aqueous Solution Comprising a Protein” (priority 2005, published 2008).

The nature of series [1]: Thioflavin T fluorescence of protein solutions. Type of series: physicochemical. Here is the method:
(§1) Fluorescence of ThT—protein/peptide adducts was measured as follows. […] Fluorescence was measured at 485 nm upon excitation at 435 nm. Background signals from buffer, buffer with ThT and protein/peptide solution without ThT were subtracted from corresponding measurements with protein solution incubated with ThT. Regularly, fluorescence of Aβ was used as a positive control, and fluorescence of FP10, a non-amyloid fibrin fragment^16, was used as a negative control. Fluorescence was measured in triplicate on a Hitachi F-4500 fluorescence spectrophotometer (Ltd., Tokyo, Japan).
Formulated protein therapeutics were obtained from the local hospital pharmacy and were used as supplied by the manufacturers. […] Lyophilized therapeutics were dissolved according to the manufacturers recommendations. GH, zinc-insulin, Cealb and gelatin were stored at −20, 4, room temperature, 37 and 65° C. Other protein therapeutics were only kept at 4° C., and assayed for the presence of cross-β structure at shown time points. Enhancement in fluorescence of ThT and Congo red was measured with all formulated protein therapeutics. For this purpose, proteins were diluted to the indicated concentrations. […] Zinc-insulin was diluted tenfold in the activation assay, GH was diluted to a final concentration of 500 μg ml^−1. Activation of factor XII and prekallikrein by the therapeutics was tested in the chromogenic factor XII assay (see above). […] After coating, plates were blocked with Blocking Reagent (Roche Diagnostics, Almere, The Netherlands).
ThT fluorescence of β2GPI was measured as follows. […] CL vesicles were prepared according to an established procedure. Briefly, CL was dried under a stream of nitrogen. The lipids were resuspended to a concentration of 10 mg ml^−1 in 25 mM Tris-HCl, pH 7.3, 150 mM NaCl by vigorous agitation, using a vortex. In the ThT fluorescence assay, fluorescence of β2GPI in buffer, of CL or DXS500k in buffer, of buffer and ThT alone, and of β2GPI-CL adducts and β2GPI-DXS500k adducts, with or without ThT, was recorded as described above (section ThT fluorescence). In addition, TEM images were recorded with CL, β2GPI from human plasma, with or without CL, and with recombinant β2GPI, as described^5.
To prepare structurally altered ovalbumin (OVA) with amyloid cross-β structures, purified OVA (Sigma, A-7641, lot 071k7094) was heated to 85° C. One mg ml^−1 OVA in 67 mM NaPi buffer pH 7.0, 100 mM NaCl, was heated for two cycles in PCR cups in a PTC-200 thermal cycler (MJ Research, Inc., Waltham, Mass., USA). In each cycle, OVA was heated from 30 to 85° C. at a rate of 5° C./min. Native OVA (nOVA) and heat-denatured OVA (dOVA) were tested in the ThT fluorescence assay and in the Plg-activation assay. In the fluorescence assay and in the Plg-activation assay, 25 and 100 μg ml^−1 nOVA and dOVA were tested, respectively. TEM images of nOVA and dOVA were taken to check for the presence of large aggregates.
MSA (#126674, Calbiochem) was dissolved in 8 M urea, 100 mM Tris-HCl pH 8.2, at 10 mg ml^−1 final concentration. Dithiothreitol (DTT) was added to a final concentration of 10 mM. Air was replaced by N2 and the solution was incubated for 2 h at room temperature. Then, the solution was transferred to ice and iodoacetamide was added from a 1 M stock to a final concentration of 20 mM. […] In the ThT-fluorescence assay 25 μg ml^−1 nMSA and alkyl-MSA were tested, and in the Plg-activation assay 100 μg ml^−1 was tested. The presence of aggregates or fibrils was analyzed using TEM. […]

Series [2] has as its target tPA (Homo sapiens, UniProt P00750). The series can be described thus: tPA binding assay with immobilized biopharmaceuticals in an ELISA. The following applies: coated 1:10, one-site binding model. As for the experimental part: Plates were washed twice with Tris buffered saline pH 7.2 containing 0.1% Tween20 (TBST) and blocked with PBS containing 1% Tween20 for 1 hour at room temperature. […] Plates were washed five times with TBST and incubated with peroxidase labeled anti-mouse immunoglobulins (RAMPO; DAKOCytomation, Glostrup, Denmark) diluted 1:3000 in PBST for 30 minutes at room temperature. Plates were washed five times with PBS 0.1% Tween20, and stained with 100 μL/well of tetramethyl-benzidine (TMB) substrate (Biosource Europe, Nivelles, Belgium). The reaction was terminated with 50 μL/well of 2 M H2SO4 and substrate conversion was read at 450 nm on a Spectramax340 microplate reader. Curves were fitted with a one-site binding model (GraphPad Prism version 4.02 for Windows, Graphpad Software, Calif., USA) from which Kd and Bmax were determined.
(§2) Protein therapeutics were obtained from the local hospital pharmacy and analyzed within the expiry limits as stated by the manufacturers.

Series [3] can be described thus: ThT fluorescence enhancement by biopharmaceuticals. The series is classed as physicochemical. Particulars: +/− SD; five μL of protein therapeutic. Here is the method:
as §1
β2-GPI was reduced and alkylated as follows. Sixhundredforty μl of β2-GPI stock was mixed with 640 μl of 8 M Urea (cooled solution) in 0.1 M Tris pH-8.2. The solution was degassed with N2 gas for approximately 6 minutes. From a 1 M DTT stock 12.8 μl was added to the solution, mixed and incubated for 3 hours at room temperature. A 1 M Iodoacetamide (Sigma; I-6125) was prepared, of which 25.6 μl was added to the β2-GPI reaction mixture. The solution was subsequently dialysed against PBS. […] Signals obtained with alkyl-β2gpi are compared with those obtained with native β2gpi starting material and with positive control acid/heat denatured amyloid-like misfolded γ-globulins.
as §2
Fluorescence of Thioflavin T (ThT; Sigma T-3516, St. Louis, Mo., USA) and Congo red (CR; Aldrich Chemical Company Inc., Milwaukee, Wis., USA) was measured on a Hitachi F-4500 spectrophotometer at an excitation wavelength of 435 nm and emission wavelength of 485 nm for ThT and an excitation wavelength of 550 nm and emission wavelength of 595 nm for Congo red. […] Fluorescence was measured in triplicate. Background fluorescence of both protein in buffer and dye-solution were subtracted from the total fluorescence signal. Five μg/mL fibrillar amyloid-β(1-40) E22Q (Peptide Synthesis Facility of the Dutch Cancer Institute NKI, Amsterdam, The Netherlands) was used as a positive control in all fluorescence assays.

Sequence of tPA (P00750 36-562): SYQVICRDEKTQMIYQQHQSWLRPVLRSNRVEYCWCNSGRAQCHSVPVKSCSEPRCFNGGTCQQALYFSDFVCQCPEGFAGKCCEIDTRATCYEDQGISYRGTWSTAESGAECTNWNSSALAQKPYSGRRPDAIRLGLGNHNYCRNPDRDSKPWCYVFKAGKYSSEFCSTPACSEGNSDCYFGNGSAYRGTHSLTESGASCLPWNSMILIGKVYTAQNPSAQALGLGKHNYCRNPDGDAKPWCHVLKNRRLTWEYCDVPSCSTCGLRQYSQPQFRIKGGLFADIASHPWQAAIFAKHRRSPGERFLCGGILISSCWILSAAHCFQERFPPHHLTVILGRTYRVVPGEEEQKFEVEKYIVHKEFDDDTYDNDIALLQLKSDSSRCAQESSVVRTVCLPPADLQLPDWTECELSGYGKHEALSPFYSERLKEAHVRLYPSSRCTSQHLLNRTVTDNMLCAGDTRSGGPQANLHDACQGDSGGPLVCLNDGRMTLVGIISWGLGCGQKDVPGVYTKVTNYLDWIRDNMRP

In the case of “Abciximab: abciximab, an inhibitor of blood platelet aggregation (ReoPro, Centocor)”, in series [1] (after storage at 65° C.), the “enhancement of ThT fluorescence” value is “enhanced ThT fluorescence”. Moreover, in series [2], the “tPA Binding Bmax” value is recorded as 0.5329 OD450 nm. Also, the “Fluorescence ThT” value in series [3] is recorded as 8 +/− 8 a.u.
As usually defined, the Kd is a measure of binding affinity in units of concentration. A higher Kd goes with lower affinity. “Somatropin: human growth hormone (Genotropin, Pharmacia)”: the “enhancement of ThT fluorescence” value in series [1] (stored at 4° C.) was “enhance fluorescence of ThT”. Further, in series [2], binding was put at a Kd of 9.05 nM and the “tPA Binding Bmax” value is given as 0.9369 OD450 nm. For the same substance, in series [3], the “Fluorescence ThT” value was 1317 +/− 10 a.u.
